Molecular target: T1, peptide TM1 (N'-TRVTSFLDWIHEQMERDLKT-C')
T1 construct: Peptide antigen coated on the plate
T1 peptide: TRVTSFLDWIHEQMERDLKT
Test: binding implied by the name and by sequencing of ELISA positive clones (phage ELISA on coated TM1); not said in so many words

- binding result: binds
B1: TM1 scFV (scFv)
scFv: ETTLTQSPSSLSASVGDRVTITCRTSQTINNYLNWYQQKPGKAPKVLIFGASRLQSGVPSRFSGSGSGTHFTLTITSLQPEDVATYYCQQSYGTPYTFGQGTKVEIKVDITSYNVYYTKLSLEQVQLQQWGAGLLKPSETLSLTCAIYNGSFGGYYWNWIRQPPGKGLEWIGEINQRESTNFNPSFKSRVTMSVDTSNNQFSLRLSSLTAADTAVYFCARGLYYDTTGFFDAFAVWGQGTTVTVSHLGLMGHHHHHH

From US20060057632A1 (KEIO UNIVERSITY, published 2006)
